Source: patent US20240424125A1 (Zymeworks, published 2024)
Positions count from the first letter of the chain named.

Legend:
[1] = target: T1, recombinant His-tagged human FRα (ACROBiosystems) (human, UniProt P15328 25-233); assay: BLI (Octet RED96): antibody on anti-human IgG Fc capture biosensor, His-tagged hFRα as analyte, 1:1 global fit, mean of n=2
T1 construct: also called hFRα; hFRα antigen; not shown: His tag
Description: (§1) The assay buffer used was KB buffer (kinetics buffer, composed of PBS pH 7.4, 0.1% BSA, 0.02% Tween 20, 0.05% sodium azide) supplemented with 0.06% Tween 20 and in some instances also with 1% BSA. The experiment was conducted at 30° C. with a shake speed of 1000 rpm.
(§2) Data analysis was performed using Data Analysis Software 9.0 (ForteBio, Fremont CA). The reference-subtracted binding curves were globally fitted to the 1:1 interaction model to generate the binding kinetic parameters kₒₙ, koff, and the dissociation constant KD.

[2] = target: T1, recombinant His-tagged human FRα …; assay: BLI (Octet RED96) as in Example 8: antibody captured, His-tagged hFRα as analyte, mean of n=2
Description: as §1, §2

[3] = target: T1, recombinant His-tagged human FRα …; assay: SPR (Biacore T200): hFRα amine-coupled to CM5 chip at high antigen density, one-armed antibody injected, 1:1 Langmuir fit, mean of n=2
Description: (§3) CM5 Series S sensor chip, Biacore™ amine coupling kit (NHS, EDC and 1 M ethanolamine), and 10 mM sodium acetate buffers were purchased from GE Healthcare Life Science (Mississauga, ON, Canada). PBS running buffer with 0.05% Tween20 (PBST) was purchased from Teknova Inc. (Hollister, CA). Recombinant human FRα was purchased from ACRObiosystems (Newark, DE).
(§4) Screening of the variants for binding to hFRα antigen was conducted in two steps: capture of hFRα onto surface, followed by injection of three to five concentrations of variant. The hFRα surface was prepared on a CM5 Series S sensor chip by standard amine coupling methods as described by the manufacturer (GE Healthcare Life Science, Mississauga, ON, Canada). The immobilization of the hFRα was performed using Biacore™ T200 immobilization wizard with an amine coupling method aiming for resonance units (RUs) ranging from 5 to 200 RUs. Using multi-cycle kinetics, three to five concentrations of a two-fold dilution series of samples starting at 300 nM with a blank buffer control were injected at 50 uL/min for 180s with a 600s dissociation phase, resulting in a set of sensorgrams with a buffer blank reference. The hFRα surface was regenerated to prepare for the next injection cycle by one pulse of 10 mM glycine/HCl pH 1.5 for 30s at 30 uL/min. Blank-subtracted sensorgrams were analyzed using Biacore™ T200 Evaluation Software v3.0. The blank-subtracted sensorgrams were then fit to the 1:1 Langmuir binding model.

[4] = target: T1, recombinant His-tagged human FRα …; assay: SPR (Biacore T200): hFRα amine-coupled to CM5 chip at medium antigen density, one-armed antibody injected, 1:1 Langmuir fit, mean of n=2
Description: as §3, §4

[5] = target: T1, recombinant His-tagged human FRα …; assay: SPR (Biacore T200): hFRα amine-coupled to CM5 chip at medium-low antigen density, one-armed antibody injected, 1:1 Langmuir fit, mean of n=2
Description: as §3, §4

human FRα on cells [6] = target: T2, human FRα on cells (human, UniProt P15328 25-234); assay: apparent Kd, flow cytometry on JEG-3 cells (endogenous FRα), as in Example 16
T2 construct: Transiently expressed on HEK293-6e, CHO-S or HEK293 microarray cells, or endogenous on JEG-3, HEC-1-A, IGROV-1, OVCAR-3, H2110, KB-HeLa and T-47D cells; also called human folate receptor alpha; FOLR1
Description: (§5) Briefly, cells were seeded at 50,000 cells/well in V-bottom 96-well plates and treated with antibody for 24 hours at 4° C. to prevent internalization. […] Following incubation and washing, fluorescence was detected by flow cytometry on a BD LSRFortessa™ Cell Analyzer (BD Biosciences, Franklin Lake, NJ) with 1,000 minimum events collected per well. AF647/APC-A GeoMean (fluorescence signal geometric mean, proportional to anti-Human AF647 binding) in live cell population was plotted using GraphPad Prism Version 9 (GraphPad Software, San Diego, CA).

human FRα on cells [7] = target: T2, human FRα on cells; assay: apparent Kd, flow cytometry on IGROV-1 cells (endogenous FRα), as in Example 16
Description: as §5

human FRα on cells [8] = target: T2, human FRα on cells; assay: apparent Kd, flow cytometry, CHO-S cells transiently expressing human FRα, 24 h at 4°C
Description: Briefly, CHO-S cells were transfected for −24 hours to transiently express human or cynomolgus monkey FRα, 1 ug DNA per 1 million cells. Following transfection, cells were seeded at 50,000 cells/well in V-bottom 96-well plates and treated with antibody for 24 hours at 4° C. to prevent internalization. […] Following incubation and washing, fluorescence was detected by flow cytometry on a BD LSRFortessa™ Cell Analyzer (BD Biosciences, Franklin Lake, NJ).

T1 sequence (P15328 25-233 limits assumed): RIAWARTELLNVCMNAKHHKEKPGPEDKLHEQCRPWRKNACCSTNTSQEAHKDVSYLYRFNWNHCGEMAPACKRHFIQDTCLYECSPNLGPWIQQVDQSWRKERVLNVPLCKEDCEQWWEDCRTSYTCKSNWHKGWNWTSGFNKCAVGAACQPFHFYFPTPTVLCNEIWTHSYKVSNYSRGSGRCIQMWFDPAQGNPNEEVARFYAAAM
T2 sequence (P15328 25-234 limits assumed): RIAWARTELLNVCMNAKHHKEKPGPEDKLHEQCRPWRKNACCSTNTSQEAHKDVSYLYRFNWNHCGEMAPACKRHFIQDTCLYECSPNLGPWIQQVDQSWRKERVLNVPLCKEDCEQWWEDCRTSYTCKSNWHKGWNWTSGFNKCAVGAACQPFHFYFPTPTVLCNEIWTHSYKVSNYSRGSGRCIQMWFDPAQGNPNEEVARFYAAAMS

B1: v30389 (antibody, human IgG1, kappa)
heavy 1: EVQVLESGGGLVQPGGSLRLSCAVSGFSLSSYGVSWVRQAPGKGLEWIGAVNSGGSAYYADSVKGRSTISRDNSKNTVYLQMNSLRAEDTAVYYCARSGSGYPMDYLAIWGQGTLVTVSSASTKGPSVFPLAPSSKSTSGGTAALGCLVKDYFPEPVTVSWNSGALTSGVHTFPAVLQSSGLYSLSSVVTVPSSSLGTQTYICNVNHKPSNTKVDKKVEPKSCDKTHTCPPCPAPELLGGPSVFLFPPKPKDTLMISRTPEVTCVVVDVSHEDPEVKFNWYVDGVEVHNAKTKPREEQYNSTYRVVSVLTVLHQDWLNGKEYKCKVSNKALPAPIEKTISKAKGQPREPQVYVYPPSRDELTKNQVSLTCLVKGFYPSDIAVEWESNGQPENNYKTTPPVLDSDGSFALVSKLTVDKSRWQQGNVFSCSVMHEALHNHYTQKSLSLSPG
heavy 2: not shown
light: DYQMTQSPSSVSASVGDRVTITCRASQSIGDWLAWYQQKPGKAPKLLIYEASTLASGVPSRFSGSGSGTDFTLTISSVQPEDAATYYCQQGYGRSNVDNIFGGGTKVEVKRTVAAPSVFIFPPSDEQLKSGTASVVCLLNNFYPREAKVQWKVDNALQSGNSQESVTEQDSKDSTYSLSSTLTLSKADYEKHKVYACEVTHQGLSSPVTKSFNRGEC
notes: Humanized IgG1/kappa, HetFc; also called 3bH4L
[1]
  Kd: 100 nM

B2: v35347 (antibody, human IgG1, kappa, V domains shown)
VH: EVQLLESGGGLVQPGGSLRLSCAVSGFSLSLYGVSWVRQAPGKGLEWIGAVNSGGSAYYADSFKGRSTISRDNSKNTVYLQMNSLRAEDTAVYYCARSGSGYPMDYHPIWGQGTLVTVSS
VL: DYQMTQSPSSVSASVGDRVTITCRASQSIGDWLAWYQQKPGKAPKLLIYEASTLASGVPSRFSGSGSGTDFTLTISSVQPEDAATYYCQQGYGRSNVDNIFGGGTKVEVKR
[2]
  Kd: 8.65 nM

B3: v35358 (antibody, human IgG1, kappa, V domains shown)
VH: B2 VH with L31S
VL: B2 VL with G30W, D31Y, S95W, N96H, V97I, D98L
[2]
  Kd: 7.22 nM

B4: v35350 (antibody, human IgG1, kappa, V domains shown)
VH: B2 VH
VL: B2 VL with G30W, D31Y, S95W, N96H, V97I, D98L
[2]
  Kd: 3.55 nM

B5: v35342 (antibody, human IgG1, kappa, V domains shown)
VH: B2 VH with A50S, V51L, F63V, H107L, P108A
VL: B2 VL with G30W, D31Y, S95W, N96H, V97I, D98L
[2]
  Kd: 4.1 nM

B6: v31425 (antibody, human IgG1, kappa)
heavy: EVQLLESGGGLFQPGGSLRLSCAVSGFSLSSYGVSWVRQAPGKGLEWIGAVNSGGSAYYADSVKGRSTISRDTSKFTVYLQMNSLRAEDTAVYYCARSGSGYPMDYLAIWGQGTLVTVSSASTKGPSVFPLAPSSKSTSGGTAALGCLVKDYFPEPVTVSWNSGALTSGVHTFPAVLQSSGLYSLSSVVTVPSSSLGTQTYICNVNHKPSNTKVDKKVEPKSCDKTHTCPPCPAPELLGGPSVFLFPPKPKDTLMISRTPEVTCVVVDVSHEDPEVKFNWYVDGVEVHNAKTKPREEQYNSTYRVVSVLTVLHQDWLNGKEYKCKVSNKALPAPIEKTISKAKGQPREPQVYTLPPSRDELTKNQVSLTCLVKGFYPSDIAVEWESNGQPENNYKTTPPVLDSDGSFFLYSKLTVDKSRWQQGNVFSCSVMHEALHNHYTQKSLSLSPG
light: B1 light
notes: Humanized IgG1/kappa, HomoFc; also called 3fH4L
[1]
  Kd: 160 nM

B7: v31423 (antibody, human IgG1, kappa, V domains shown)
VH: B2 VH with L31S, F63V, N73T, H107L, P108A
VL: B2 VL
notes: Humanized IgG1/kappa, HomoFc; also called 3dH4L
[1]
  Kd: 110 nM

B8: v35354 (antibody, human IgG1, kappa, V domains shown)
VH: B2 VH with H107L, P108A
VL: B2 VL with G30W, D31Y, S95W, N96H, V97I, D98L
[2]
  Kd: 3.13 nM

B9: v31422 (antibody, human IgG1, kappa)
heavy: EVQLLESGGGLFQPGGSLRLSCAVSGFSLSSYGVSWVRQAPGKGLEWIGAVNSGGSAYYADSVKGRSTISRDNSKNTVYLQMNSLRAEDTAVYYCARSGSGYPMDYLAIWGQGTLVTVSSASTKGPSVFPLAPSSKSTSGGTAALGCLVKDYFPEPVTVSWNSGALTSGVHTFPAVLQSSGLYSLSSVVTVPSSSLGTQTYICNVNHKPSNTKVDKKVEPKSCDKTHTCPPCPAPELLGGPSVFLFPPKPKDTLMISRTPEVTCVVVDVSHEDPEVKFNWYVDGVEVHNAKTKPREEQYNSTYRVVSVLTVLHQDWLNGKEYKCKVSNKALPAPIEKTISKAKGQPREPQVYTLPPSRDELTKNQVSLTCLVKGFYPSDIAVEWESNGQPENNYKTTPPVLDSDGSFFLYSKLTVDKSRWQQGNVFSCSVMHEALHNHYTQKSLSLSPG
light: B1 light
notes: Humanized IgG1/kappa, HomoFc; also called 3cH4L
[1]
  Kd: 180 nM

B10: v31424 (antibody, human IgG1, kappa)
heavy: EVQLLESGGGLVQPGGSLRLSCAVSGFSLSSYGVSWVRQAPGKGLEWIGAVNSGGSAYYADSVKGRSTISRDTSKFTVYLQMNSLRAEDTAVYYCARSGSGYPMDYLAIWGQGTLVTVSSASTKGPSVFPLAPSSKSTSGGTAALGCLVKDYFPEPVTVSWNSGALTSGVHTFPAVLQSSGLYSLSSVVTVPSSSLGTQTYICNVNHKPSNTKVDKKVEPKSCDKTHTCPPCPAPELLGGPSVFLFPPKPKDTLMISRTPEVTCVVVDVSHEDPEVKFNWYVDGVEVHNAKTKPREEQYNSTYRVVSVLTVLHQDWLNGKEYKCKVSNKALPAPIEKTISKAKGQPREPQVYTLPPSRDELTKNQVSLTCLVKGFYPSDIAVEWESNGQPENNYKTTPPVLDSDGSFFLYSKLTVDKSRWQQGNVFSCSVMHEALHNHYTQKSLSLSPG
light: B1 light
notes: Humanized IgG1/kappa, HomoFc; also called 3eH4L
[1]
  Kd: 110 nM

B11: v32596 (antibody, V domains shown)
VH: QSVKESEGGLFKPTDTLTLTCTVSGFSLSSYGVSWVRQAPGNGLEWIGAVNSGGSAYYANWAKSRSTITRNTNLFTVTLKMTSLAVADTATYFCARSGSGYPMDYLAIWGPGTLVTVSS
VL: AYDMTQTPASVEVAVGGTVTIKCQASQSIGDWLAWYQQKPGQPPRLLIYEASTLASGVPSRFSGSGSGTQFTLTISGVECADAATYYCQQGYGRSNVDNIFGGGTEVVVK
notes: One-armed antibody (OAA) format, said to be the equivalent of the FSA v23924; also called OAA v23924 equivalent; one-armed antibody equivalent of v23924
[3]
  Kd: 30 nM
[4]
  Kd: 30.3 nM
[5]
  Kd: 37.9 nM

B12: v35356 (antibody, human IgG1, kappa, V domains shown)
VH: B2 VH with L31S
VL: B2 VL with S95W, N96H, V97I, D98L
Human FRα on cells [6]
  Kd: 0.44 nM
Human FRα on cells [7]
  Kd: 1.31 nM
[2]
  Kd: 4.98 nM

B13: v32597 (antibody, V domains shown)
VH: B2 VH with L31S, F63V, H107L, P108A
VL: DYQMTQSPSSVSASVGDRVTITCRASQSIGDWLAWYQQKPGKAPKLLIYEASTLASGVPSRFSGSGSGTDFTLTISSVQPEDAATYYCQQGYGRSNVDNIFGGGTKVEVK
notes: One-armed antibody (OAA) format, equivalent of v30384; also called OAA v30384 equivalent; one-armed antibody equivalent of v30384
[3]
  Kd: 143 nM
[4]
  Kd: 139 nM
[5]
  Kd: 146 nM

B14: v36167 (antibody, human IgG1, kappa, V domains shown)
VH: B2 VH with L31S, H107L, P108A
VL: B2 VL with G30W, D31Y, S95W, N96H, V97I, D98L
[2]
  Kd: 7.29 nM

B15: v36168 (antibody, human IgG1, kappa, V domains shown)
VH: B2 VH with A50S, F63V, H107L, P108A
VL: B2 VL with G30W, D31Y, S95W, N96H, V97I, D98L
[2]
  Kd: 4.97 nM

B16: v32598 (antibody, V domains shown)
VH: B2 VH with L4V, L31S, S62W, F63A, H107L, P108A
VL: B13 VL
notes: One-armed antibody (OAA) format, equivalent of v30399; also called OAA v30399 equivalent; one-armed antibody equivalent of v30399
[3]
  Kd: 82 nM
[4]
  Kd: 80.8 nM
[5]
  Kd: 91.5 nM

B17: Palivizumab (anti-RSV) (v22277) (antibody, V domains shown)
VH: QVTLRESGPALVKPTQTLTLTCTFSGFSLSTSGMSVGWIRQPPGKALEWLADIWWDDKKDYNPSLKSRLTISKDTSKNQVVLKVTNMDPADTATYYCARSMITNWYFDVWGAGTTVTVSS
VL: DIQMTQSPSTLSASVGDRVTITCKCQLSVGYMHWYQQKPGKAPKLLIYDTSKLASGVPSRFSGSGSGTEFTLTISSLQPDDFATYYCFQGSGYPFTFGGGTKLEIK
Human FRα on cells [8]
  Kd: > 50 nM
